Measurements taken from patent US6620616B1, “Nucleic acids encoding nitric oxide synthase variants” (The Cleveland Clinic Foundation, priority 2000, dated 2003).

How the values were obtained:
[1] = NO synthesis from Arg (initial rate); type: biochemical; conditions: for NO synthesis from Arg, turn over number (kcat): 25° C.
Procedure: (§1) The initial rate of NO synthesis, NADPH oxidation, or cytochrome c reduction by wild type and mutants was quantitated at 25° C. as described in Abu-Soud et al. (1997) J. Biol. Chem 272: 10769-10772. H2O2-dependent nNOS oxidation of NOHA to nitrite was assayed in 96-well microplates at 30° C. The assay volume was 100 μl and contained 40 mM EPPS, pH 7.6, 250 nM nNOS or mutants, 1 mM NOHA, 1 mM DTT, 25 units/ml superoxide dismutase 0.5 mM EDTA, and 4 μM H4B. Reactions were initiated by adding 30 mM H2O2 and stopped after 10 min by adding 1300 units of catalase. Nitrite was detected at 550 nm using the Griess reagent (100 μL) and quantitated based on nitrite standards.

[2] = NO synthesis from NOHA (initial rate); type: biochemical; conditions: 25° C.
Procedure: as §1

NADPH oxidation = type: biochemical; conditions: 25° C.
Procedure: as §1

cytochrome c = assay: Cytochrome c reduction; type: biochemical; conditions: 25° C.
Procedure: as §1

[3] = Ferrous-nitrosyl complex formation during aerobic steady state; type: biochemical; conditions: air-saturated buffer, 15° C., 1 mM Arg, 20 μM H4B
Procedure: NO down-regulates the rate of NO synthesis and associated electron flux by binding to the nNOS heme. We therefore investigated if NO binding to the heme was altered by the Trp-409 mutations during aerobic steady-state catalysis. In this study, 0.6 μM nNOS was diluted is an air-saturated 40 mM EPPS buffer, pH 7.6, containing 0.9 mM EDTA, 3 μM CaM, 200 μM DTT, 20 μM H4B, 80 μM NADPH, and 1 mM Arg; final volume 1 ml. Reactions were started by adding 1.2 mM Ca^2+ and monitored by wavelength scanning at 15° C.

[4] = NO synthesis versus O2 concentration (oxyhemoglobin assay); type: biochemical; conditions: O2 levels ranging from 0 to 230 mm O2, 25° C., FIG. 3
Procedure: The reaction was started by adding 0.2 mM NADPH. Rates of synthesis were quantified as follows: the initial rate of NO synthesis by nNOS was quantitated at 25° C. using oxyhemoglobin assay for NO, according to the method found in Abu-Soud and Stuehr (1993) Proc. Natl. Acad. Sci. U.S.A. 90:10769-10772. The NO mediated conversion of oxyhemoglobin to met-hemoglobin was monitored over time as an absorbence increase at 401 nm, and quantitated using the extinction coefficient of 38 mM^−1 cm^−1. Quantitation was done with a Hitachi U2000 spectrophotometer. O2 concentration measurement in each reaction was calculated based on the O2 concentration of a saturated buffer at 25° C. (approximately 0.26 mM) and the mixing ratios of this solution with an anaerobic buffer that contained no oxygen. […] The difference in the enzymatic activity of the NOS variant and wild-type NOS is most pronounced at low concentrations of O2, i.e., concentrations ranging from 0 to 50 μM.

[5] = Ferric- and ferrous-NO complex formation under anaerobic conditions; type: binding; conditions: Arg and H4B present
Procedure: Given the above, we investigated if either mutant could form stable ferric or ferrous NO complexes with authentic NO under an anaerobic atmosphere in the presence of Arg and H4B, as occurs for wild-type nNOS. Concentrated small amounts of nNOS or mutants were placed into an anaerobic cuvette with 4 μM H4B, 1 mM Arg, and 200 μM DTT and made anaerobic by repeated cycles of evacuation and equilibration with deoxygenated argon gas. A 40 mM EPPS buffer containing 4 μM H4B, 1 mM Arg, and 200 μM DTT was separately made anaerobic, and 1 ml of this solution was transferred to the cuvette. NO gas was added to the head space and dissolved by mixing. Dithionite solution was then added in some cases.

[6] = CaM-bound, +H4B, NAME (nitro-L-arginine methyl ester)

Substance | faster rate of NO synthesis from Arg compared with the wild type ([1]; +CaM) [fold] | NO synthesis from Arg, turn over number (kcat) ([1]; +CaM) | NO synthesis from Arg, turn over number (kcat) ([1]; −CaM) | NO synthesis from NOHA, turn over number (kcat) ([2]; +CaM) | NO synthesis from NOHA, turn over number (kcat) ([2]; −CaM) | NADPH oxidation, turn over number (kcat) (NADPH oxidation; +CaM) | NADPH oxidation, turn over number (kcat) (NADPH oxidation; CaM-bound, +H4B, Arg) | NADPH oxidation, turn over number (kcat) (NADPH oxidation; [6]) | NADPH oxidation, turn over number (kcat) (NADPH oxidation; CaM-bound, +H4B, agmatine) | NADPH oxidation, turn over number (kcat) (NADPH oxidation; CaM-bound, +H4B, −Arg) | NADPH oxidation, turn over number (kcat) (NADPH oxidation; CaM-bound, −H4B, −Arg) | NADPH oxidation, turn over number (kcat) (NADPH oxidation; −CaM) | Cytochrome c reduction, turn over number (kcat) (cytochrome c; +CaM) | Cytochrome c reduction, turn over number (kcat) (cytochrome c; −CaM) | 6-coordinate ferrous-NO complex accumulation (absorbance buildup at 436 nm) during steady-state NO synthesis [3] | rate of NO production relative to wild-type nNOS [4] | ferric NO complex formation with authentic NO [5] | ferrous-NO complex after dithionite reduction ([5]; dithionite added)
W409F: rat nNOS variant with phenylalanine (F) at position 409 in place of tryptophan, His6-tagged, expressed in E. coli | 3 | 286 mol of product formed/mol of protein/min | 0 mol of product formed/mol of protein/min | 453 mol of product formed/mol of protein/min | 0 mol of product formed/mol of protein/min | 445 mol of product formed/mol of protein/min | 480 + 20 min^−1 | 16 + 3 min^−1 | 180 + 10 min^−1 | 189 + 15 min^−1 | 105 + 10 min^−1 | 5.6 mol of product formed/mol of protein/min | 5000 mol of product formed/mol of protein/min | 230 mol of product formed/mol of protein/min | small | faster than the wild-type nNOS protein | – | –
W409Y: rat nNOS variant with tyrosine (Y) at position 409 in place of tryptophan, His6-tagged, expressed in E. coli | 1.8 | 155 mol of product formed/mol of protein/min | 0 mol of product formed/mol of protein/min | 180 mol of product formed/mol of protein/min | 0 mol of product formed/mol of protein/min | 237 mol of product formed/mol of protein/min | 250 + 20 min^−1 | 25 + 4 min^−1 | 170 + 10 min^−1 | 124 + 4 min^−1 | 74 + 8 min^−1 | 11.2 mol of product formed/mol of protein/min | 5546 mol of product formed/mol of protein/min | 280 mol of product formed/mol of protein/min | no | faster than the wild-type nNOS protein | – | –
nNOS: wild-type rat neuronal nitric oxide synthase, His6-tagged, expressed in E. coli; non-variant comparator [reference compound] | – | 96 mol of product formed/mol of protein/min | 0 mol of product formed/mol of protein/min | 115 mol of product formed/mol of protein/min | 0 mol of product formed/mol of protein/min | 170 mol of product formed/mol of protein/min | 160 + 12 min^−1 | 22 + 4 min^−1 | 250 + 20 min^−1 | 500 + 25 min^−1 | 290 + 25 min^−1 | 11.2 mol of product formed/mol of protein/min | 7000 mol of product formed/mol of protein/min | 500 mol of product formed/mol of protein/min | a significant percentage accumulated as the 6-coordinate ferrous-NO complex | – | formed stable 6-coordinate ferric NO complexes | stable 6-coordinate ferrous-NO complex
